{
  "source": "paper PMC4341239",
  "about": "“High yield purification of full-length functional hERG K^+ channels produced in Saccharomyces cerevisiae” (Microbial Cell Factories, 2015)",
  "biological_target": "the molecule itself",
  "experiment": "SEC; fluorescence size exclusion chromatography (FSEC) on Superose 6 10/300 GL; crude membranes solubilized in FC-12 with cholesteryl-hemisuccinate, with 1 uM Astemizole; FSEC buffer 20 mM TRIS-HCl, 0.15 M NaCl, 0.03% DDM; mass by MW standards, amount of detergent in the complex unknown",
  "data": [
    {"protein": "hERG-TEV-GFP-His 8 fusion protein (full-length hERG alpha-subunit, Kv11.1) (natural protein, human, UniProt Q12809 1-1159, looked up, N-glycosylated in S. cerevisiae, the fusion is 156 kDa; also called hERG-GFP-His 8; hERG-GFP; source: S. cerevisiae strain PAP1500, induced at 15°C; crude membranes solubilized in FC-12 with cholesteryl-hemisuccinate; not shown: GFP (yEGFP, after a TEV cleavage site), C-terminal, kept; His8, C-terminal, kept) MPVRRGHVAPQNTFLDTIIRKFEGQSRKFIIANARVENCAVIYCNDGFCELCGYSRAEVMQRPCTCDFLHGPRTQRRAAAQIAQALLGAEERKVEIAFYRKDGSCFLCLVDVVPVKNEDGAVIMFILNFEVVMEKDMVGSPAHDTNHRGPPTSWLAPGRAKTFRLKLPALLALTARESSVRSGGAGGAGAPGAVVVDVDLTPAAPSSESLALDEVTAMDNHVAGLGPAEERRALVGPGSPPRSAPGQLPSPRAHSLNPDASGSSCSLARTRSRESCASVRRASSADDIEAMRAGVLPPPPRHASTGAMHPLRSGLLNSTSDSDLVRYRTISKIPQITLNFVDLKGDPFLASPTSDREIIAPKIKERTHNVTEKVTQVLSLGADVLPEYKLQAPRIHRWTILHYSPFKAVWDWLILLLVIYTAVFTPYSAAFLLKETEEGPPATECGYACQPLAVVDLIVDIMFIVDILINFRTTYVNANEEVVSHPGRIAVHYFKGWFLIDMVAAIPFDLLIFGSGSEELIGLLKTARLLRLVRVARKLDRYSEYGAAVLFLLMCTFALIAHWLACIWYAIGNMEQPHMDSRIGWLHNLGDQIGKPYNSSGLGGPSIKDKYVTALYFTFSSLTSVGFGNVSPNTNSEKIFSICVMLIGSLMYASIFGNVSAIIQRLYSGTARYHTQMLRVREFIRFHQIPNPLRQRLEEYFQHAWSYTNGIDMNAVLKGFPECLQADICLHLNRSLLQHCKPFRGATKGCLRALAMKFKTTHAPPGDTLVHAGDLLTALYFISRGSIEILRGDVVVAILGKNDIFGEPLNLYARPGKSNGDVRALTYCDLHKIHRDDLLEVLDMYPEFSDHFWSSLEITFNLRDTNMIPGSPGSTELEGGFSRQRKRKLSFRRRTDKDTEQPGEVSALGPGRAGAGPSSRGRPGGPWGESPSSGPSSPESSEDEGPGRSSSPLRLVPFSSPRPPGEPPGGEPLMEDCEKSSDTCNPLSGAFSGVSNIFSFWGDSRGRQYQELPRCPAPTPSLLNIPLSSPGRRPRGDVESRLDALQRQLNRLETRLSADMATVLQLLQRQMTLVPPAYSAVTTPGPGPTSTSPLLPVSPLPTLTLDSLSQVSQFMACEELPPGAPELPQEGPTRRLSLPGQLGALTSQPLHRHGSDPGS", "values": [
      {"measurement": "stoichiometry N", "result": 4}
    ]}
  ]
}
